Laboratory results taken from the nanobody polyreactivity screen of Harvey et al. (2022).

Experiment: yeast display, Sf9 membrane polyspecificity reagent, FACS + sequencing; frameworks hold sequencing errors
In short: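 Nanobodies came from a synthetic yeast display library in Saccharomyces cerevisiae BJ5465, induced with galactose for 36–48 hours and stained for 1 hour at 4 °C with 10% biotinylated, detergent-solubilized Sf9 membrane reagent. Cells were enriched on streptavidin microbeads and then FACS-sorted, with low and high (top ~1%) gates set on anti-HA fluorescence for expression and streptavidin fluorescence for reagent binding. Each polyreactivity label reflects the gate a clone came from. Genes were amplified by colony PCR, sequenced by MiSeq 2 × 250 and filtered by CDR length.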

Sequence	polyreactivity (PSR sort gate)
QVQLVESGGGLVQAGGSLRLSCAASGSTFLVYAMGWYRQAPGKERELVAAIRSGGRTYYADSVKGRFTISRDNAKNTVYLQMNSLKPEDTAVYYCAADVLLRYGYRGYDYWGQGTQVTVSS	low polyreactivity
QVQLVESGGGLVQAGGSLRLSCAASGSTFLVYAMGWYRQAPGKERELVADITSRGGSTYYADSVKGRFTISRDNAKNTVYLQMISLKPEDTAVYYCAARKRFVLFDYWGQGTQVTVSS	low polyreactivity
QVQLVESGGGLVQAGGSLRLSCAASGSTFLVYAMGWYRQAPGKERELVAVITYSTVRTYYADSVKGRFTISRDNAKNTVYLQMNSLKPEDTAVYYCNADKEFAVLGQGMDYWGQGTQVTVSS	low polyreactivity
QVQLVESGGGLVQAGGSLRLSCAASGSTFLYNAMGWYRQAPGKERELVAAITIGGGSTYYADSVKGRFTISRDNAKNTVYLQMNSLKPEDTAVYYCNKGSYYWWDPGSTYIDDYWGQGTQVTVSS	low polyreactivity
QVQLVESGGGLVQAGGSLRLSCAASGSTFLYNRMGWYRQAPGKERELVAAISSVGSTYYADSVKGRFTISRDNAKNTVYLQMNSLKPEDSAVYYCAASYDWRAYRRDFYYWLTGDYWGQGTQVTVSS	low polyreactivity
QVQLVESGGGLVQAGGSLRLSCAASGSTFLYNTMGWYRQSPGKERELVAAITWSGGNTYYADSVKGRFTISRDNAKNTVYLQMNSLKPEDTAVYYCNAVWYPPKRKGFDYWGQGTQVTVSS	low polyreactivity
QVQLVESGGGLVQAGGSLRLSCAASGSTFLYYAMGWYRQAPGKERELVAAIRVGGGRTYYADSVKGRFTISRDNAKNTVYLQMNSLKPEDTAVYYCAAKRRHRVPFDYWGQGTQVTVSS	high polyreactivity
QVQLVESGGGLVQAGGSLRLSCAASGSTFLYYAMGWYRQAPGKERELVAVISWSGVSTYYADSVKGRFTISRDNAKNTVYLQMNSLKPEDTAVYYCNTGNHYIRTYGYWGQGSQVTVSS	low polyreactivity
QVQLVESGGGLVQAGGSLRLSCAASGSTFLYYAMGWYRQAPGKERELVAVISWSGVSTYYADSVKGRFTISRDNAKNTVYLQMNSLTPEDTAVYYCNTGNHYIRTYGYWGQGTQVTVSS	low polyreactivity
QVQLVESGGGLVQAGGSLRLSCAASGSTFLYYDMGWYRQAPGKERELVADITWSGSGTYYADSVKGRFTISRDNAKNTVYLQMNSLKPEDTAVYYCAADDTWRGDQYFYSYDYWGQGTQVTVSS	low polyreactivity
QVQLVESGGGLVQAGGSLRLSCAASGSTFLYYGMGWYRQSPGYERELVATITWRGGRTYYADSVKGRYTISRDNAKNTVYLQMNSLKPEDTAVYYCARVRLTTYGYYSWGQGTQVTVSS	high polyreactivity
QVQLVESGGGLVQAGGSLRLSCAASGSTFLYYTMGWYRPAPGKERELVAAITSGGDTNYPDSVKGRFTISRDNAKNTVYLQMNSLKPEDTAVYYCNAEYTLSGTKIYTYKYDYRGQGTQVTVSS	low polyreactivity
QVQLVESGGGLVQAGGSLRLSCAASGSTFLYYTMGWYRQAPGKERELVAAITGSGTSTYYADSVKGRFTISRDNAKNTVYLQMNSLKPEDTAVYYCAARGHGRLYYWGQGTQVTVSS	high polyreactivity
QVQLVESGGGLVQAGGSLRLSCAASGSTFNAYAMGWYRQAPGKERELVAAISYTGGSTYYADSVKGRFTISRDNAKNTVYLQMNSLKPDDTAVYYCARRQARKFYYWGQGTQVTVSS	high polyreactivity
QVQLVESGGGLVQAGGSLRLSCAASGSTFNGNVMGWYRQAPGKERELVAGISKSGGTTYYADSVKGRFTISRDNAKNTVYLQMNSLKPEDTAVYYCAARGRVRYYPQYDYWGQGTQVTVSS	high polyreactivity
QVQLVESGGGLVQAGGSLRLSCAASGSTFNHYAMGWYRQAPGKERELVAAITKSGGSTYADSVKGRFTISRDNAKNTVYLQMNSLKPEDTAVYYCAAGRRKYGTKGRGDYWGQGTQVTVSS	low polyreactivity
QVQLVESGGGLVQAGGSLRLSCAASGSTFNIYAMGWYRQAPGKERELVATISWTGGRTFYADSVKGRFTISRDNAKNTVYLQMNSLKPEDTAVYYCNKASTGGYDYWGQGTQVTVSS	high polyreactivity
QVQLVESGGGLVQAGGSLRLSCAASGSTFNIYVMGWYRQAPGKERELVADITTSGRTYYADSVKGRFTISRDNAKNTVYVQMNSLKPEDTAVYYCADATGTYGRGGYYWGQGTQLTVSS	high polyreactivity
QVQLVESGGGLVQAGGSLRLSCAASGSTFNKYAMGWYRPAPGKERELVAVITKRGGSTYYADSVKGRFTISRDNAKNTVYLQMNSLKPEDTAVYYCAASSLYYGYDYWGQGTQVTVSS	high polyreactivity
QVQLVESGGGLVQAGGSLRLSCAASGSTFNLNAMGWYRQAPGKERELVAAIDSGGRTNYADSVKGRFTISRDNAKNTVYLQMNSLKPEDTAVYYCAARVLPYLTPRRQMYYWGQGTQVTVSS	low polyreactivity
QVQLVESGGGLVQAGGSLRLSCAASGSTFNLYAMGWYRQAPGKERELVASISRSGVSTYYADSVKGRFTISRDNAKNTVYLQMNRLKPEDTAVYYCAVDKVLYRLYPGMDYWGQGTQVTVSS	low polyreactivity
QVQLVESGGGLVQAGGSLRLSCAASGSTFNNNAMGWYRQAPGKERELVAAISYTGGSTYYADSVKGRFTISRDNAKNTVYLQMKSLKPEDTAVYYCDAAYPHFGGYRYDYWGQGTQVTVSS	high polyreactivity

Sequence	polyreactivity (PSR sort gate)
QVQLVESGGGLVQAGGSLRLSCAASGSTFNQYAMGWYRQAPGKEREFVATITWSGGRTYYADSVKGRFTISRDNAKNTVYLQMISLKPEDTAVYYCAAQPDYRPSYGYGYWGQGTQVTVSS	low polyreactivity
QVQLVESGGGLVQAGGSLRLSCAASGSTFNRYALGWYRQAPGKEREFVAAISTRGGSTHYADSVKGRFTISRDNAKNTVYLQMNSLKPEDTAVYYCNARGYYSVPSNTGIRYYRFDYWGQGTQVTVSS	low polyreactivity
QVQLVESGGGLVQAGGSLRLSCAASGSTFNRYAMGWYRQAHGKERELVAGISYRGGTYYSDSVKGRFTISRDNAKNTVYLQMNSLKPEDTAVYYCNVVRRGTTSYDDYEYWGQGTQVTVSS	high polyreactivity
QVQLVESGGGLVQAGGSLRLSCAASGSTFNRYAMGWYRQAPGKERELVAAITRSGTSTYYADSVKGRFTISRDNAKNTVYLQMNSLKPEDTAVYYCAAVRYAVHFSYDYWGQGTQVTVSS	high polyreactivity
QVQLVESGGGLVQAGGSLRLSCAASGSTFNRYAMGWYRQAPGKERELVAAITSTGGTNYADSVKGRFTISLDNAKNTVYLQMYSLKPEDTAVYYCAKRWLRGRSNYWGHGTQVTVSS	high polyreactivity
QVQLVESGGGLVQAGGSLRLSCAASGSTFNTNAMGWYRQAPGKERELVAAITSSGGGTYYADSVKGRFTISRDNAKNTVYLQMNSLKPEDTAVYYCNAVSGWYNSITYDYWGQGTQVTVSS	high polyreactivity
QVQLVESGGGLVQAGGSLRLSCAASGSTFNTYAMGWYRQAPGKERELVAAITWRGGRTYYADSVKGRFTISRDNAKNTVYLQMISLKPEDTAVYYCNTLRPRLDGVYGYDYWGQGSQVTVSS	high polyreactivity
QVQLVESGGGLVQAGGSLRLSCAASGSTFNWNAMGWYRPAPGKERELVAAISRSGGRTSYADSVKGRFTISRDNAKNTVYLQMNSLKPEDTAVYYCAAEKVGTRPSRDYDYWGQGTQVTVSS	high polyreactivity
QVQLVESGGGLVQAGGSLRLSCAASGSTFPAYTMGWYRQAPGKERELVAAINVSSGGSTYYADSVKGRFTISRDNAKNTVYLQRNSLKPEDTAVYYCATHGYVAHPYYYPYYYWGQGTQVTVSS	low polyreactivity
QVQLVESGGGLVQAGGSLRLSCAASGSTFPFNAMGWYRQAPGKEREFVAVINSGGDSTYYADSVKGRFTISRDNAKNTVYLQMNSLKPEDTAVYYCNAEDTRNDYDYWGQGTQVTVSS	low polyreactivity
QVQLVESGGGLVQAGGSLRLSCAASGSTFPFYAMGWYRQAPGKERELVAAIRYTGNTYYADSVKGRFTISRDNAKNTVYLQMNSLKPEDTAVYYCAADADYWAYGYWGQGTQVTVSS	low polyreactivity
QVQLVESGGGLVQAGGSLRLSCAASGSTFPGNAMGWYRQAPGNERELVAAIRWSGGRTYYADSVKGRFTISRDNAKNTVYLQMNSLKPEDTAVYYCAARLRKHGYGYWGQGTQVTVSS	low polyreactivity
QVQLVESGGGLVQAGGSLRLSCAASGSTFPHNAMGWYRPAPGKERELVAAISVGGGSTHYADSVKGRFTISRDNAKNTVYLQMNSLKPEDTAVYYCAKDYAYQYSFVTYDYWGQGTQVTVSS	low polyreactivity
QVQLVESGGGLVQAGGSLRLSCAASGSTFPKNAKGWYRQAPGKERELVAAINTGGSTYYADSVKGRFTISRDNAKNTVYLQINSLKPEDTAVYYCAARDNYHRDVGHPYDYWGQGTQVTVSS	low polyreactivity
QVQLVESGGGLVQAGGSLRLSCAASGSTFPKNAMGWTIQAPGKERELVADINTGGSTYYADSVKGRFTISRDNAKNTVYLQMNSLIPEDTAVYYCNTQSFYFVSYSSSRYLRYYWGQVTQVTVSS	low polyreactivity
QVQLVESGGGLVQAGGSLRLSCAASGSTFPKYAMGWYRPAPGKERELVAAITSRGSTYADSVKGRFTISRDNAKNTVYLPMNSLKPVDTAVYYCAKDSRYASRDYWGQGTQVTVSS	high polyreactivity
QVQLVESGGGLVQAGGSLRLSCAASGSTFPKYAMGWYRQAPGKERELVASISVTTGSTYYADSVKGRFTISRDSAKNTVYLQMNSQKPVDTAVFYCAKRTYSRKFRGAYNYWGQGTQVTVSS	high polyreactivity
QVQLVESGGGLVQAGGSLRLSCAASGSTFPPNAMGWYRQAPGKERELVAGINGSGGRTYYADSVKGRFTISRDNAKNTVYLQMNSMKPEDTAVYYCATRLRSEYYYNKWYYHWGQGTQVTVSS	high polyreactivity
QVQLVESGGGLVQAGGSLRLSCAASGSTFPPYVMGWYRQAPGKERELVAAITWSSGSTYYADSVKGRFTISRDNAKNTVYLQMNSLKPEDTAVYYCAARAYRWGQGTQVTVSS	low polyreactivity
QVQLVESGGGLVQAGGSLRLSCAASGSTFPQNVMGWYRQAPGKVRELVAAITRSAGSTYYADSVKGRFTISRDNPKNTVYLQMNSLKPEDTAVYNCNTGRQRGSYYYDYWGQGTQVTVSS	high polyreactivity
QVQLVESGGGLVQAGGSLRLSCAASGSTFPRNAMGWYRLAPGKERELVAAITSGDSTYYADSVNGRFTISRDNAKNTVYLQKNSQKPEDTAVYYCGQGTQVTVSS	low polyreactivity
